Experimental findings from patent publication US20240360201A1 (BIOCYTOGEN PHARMACEUTICALS BEIJING, published 2024) are described below.

The chains are these.
B1: PDL1-C40-6A7-FV3A1 (IgG1) (bispecific antibody)
heavy: EVQLLESGGGLVQPGGSLRLSCAASGFTFSSYIMMWVRQAPGKGLEWVSSIYPSGGITFYADTVKGRFTISRDNSKNTLYLQMNSLRAEDTAVYYCARIKLGTVTTVDYWGQGTLVTVSSASTKGPSVFPLAPSSKSTSGGTAALGCLVKDYFPEPVTVSWNSGALTSGVHTFPAVLQSSGLYSLSSVVTVPSSSLGTQTYICNVNHKPSNTKVDKKVEPKSCDKTHTCPPCPAPELLGGPSVFLFPPKPKDTLMISRTPEVTCVVVDVSHEDPEVKFNWYVDGVEVHNAKTKPREEQYNSTYRVVSVLTVLHQDWLNGKEYKCKVSNKALPAPIEKTISKAKGQPREPQVYTLPPSRDELGGGGSGGGGSDVVMTQSPLSLPVTLGQPASISCRSSQSLLHSNGNTYLHWYQQRPGQSPNHLIYQVSNRFSGVPDRFSGSGSGTDFTLKISRVEAEDVGVYFCSQTTHVPWTFGCGTKVEIKGGGGSGGGGSGGGGSGGGGSQVQLVQSGAEVKKPGASVKLSCKASGYTFISYYIYWVKQAPGQCLEWIGGINPRNGGTNFNEKFKSRATLTVDTSISTAYMELSRLRSEDTAVYYCTRHGNGVYWGQGTTLTVSSGGGGSGGGGSTKNQVSLTCLVKGFYPSDIAVEWESNGQPENNYKTTPPVLDSDGSFFLYSKLTVDKSRWQQGNVFSCSVMHEALHNHYTQKSLSLSPGK
light: QSALTQPASVSGSPGQSITISCTGTSSDVGGYNYVSWYQQHPGKAPKLMIYDVSNRPSGVSNRFSGSKSGNTASLTISGLQAEDEADYYCSSYTSSSTRVFGTGTKVTVLGQPKANPTVTLFPPSSEELQANKATLVCLISDFYPGAVTVAWKADGSPVKAGVETTKPSKQSNNKYAASSYLSLTPEQWKSHRSYSCQVTHEGSTVEKTVAPTECS
notes: IgG1
B2: PDL1-C40-6A7-FV3A3 (IgG1) (bispecific antibody)
heavy: EVQLLESGGGLVQPGGSLRLSCAASGFTFSSYIMMWVRQAPGKGLEWVSSIYPSGGITFYADTVKGRFTISRDNSKNTLYLQMNSLRAEDTAVYYCARIKLGTVTTVDYWGQGTLVTVSSASTKGPSVFPLAPSSKSTSGGTAALGCLVKDYFPEPVTVSWNSGALTSGVHTFPAVLQSSGLYSLSSVVTVPSSSLGTQTYICNVNHKPSNTKVDKKVEPKSCDKTHTCPPCPAPELLGGPSVFLFPPKPKDTLMISRTPEVTCVVVDVSHEDPEVKFNWYVDGVEVHNAKTKPREEQYNSTYRVVSVLTVLHQDWLNGKEYKCKVSNKALPAPIEKTISKAKGQPREPQVYTLPPSRDELTKGGGGSGGGGSDVVMTQSPLSLPVTLGQPASISCRSSQSLLHSNGNTYLHWYQQRPGQSPNHLIYQVSNRFSGVPDRFSGSGSGTDFTLKISRVEAEDVGVYFCSQTTHVPWTFGCGTKVEIKGGGGSGGGGSGGGGSGGGGSQVQLVQSGAEVKKPGASVKLSCKASGYTFISYYIYWVKQAPGQCLEWIGGINPRNGGTNFNEKFKSRATLTVDTSISTAYMELSRLRSEDTAVYYCTRHGNGVYWGQGTTLTVSSGGGGSGGGGSNQVSLTCLVKGFYPSDIAVEWESNGQPENNYKTTPPVLDSDGSFFLYSKLTVDKSRWQQGNVFSCSVMHEALHNHYTQKSLSLSPGK
light: QSALTQPASVSGSPGQSITISCTGTSSDVGGYNYVSWYQQHPGKAPKLMIYDVSNRPSGVSNRFSGSKSGNTASLTISGLQAEDEADYYCSSYTSSSTRVFGTGTKVTVLGQPKANPTVTLFPPSSEELQANKATLVCLISDFYPGAVTVAWKADGSPVKAGVETTKPSKQSNNKYAASSYLSLTPEQWKSHRSYSCQVTHEGSTVEKTVAPTECS
notes: IgG1; scFv inserted between EU 360 and 361
B3: PDL1-C40-6A7-FV3A2 (IgG1) (bispecific antibody)
heavy: EVQLLESGGGLVQPGGSLRLSCAASGFTFSSYIMMWVRQAPGKGLEWVSSIYPSGGITFYADTVKGRFTISRDNSKNTLYLQMNSLRAEDTAVYYCARIKLGTVTTVDYWGQGTLVTVSSASTKGPSVFPLAPSSKSTSGGTAALGCLVKDYFPEPVTVSWNSGALTSGVHTFPAVLQSSGLYSLSSVVTVPSSSLGTQTYICNVNHKPSNTKVDKKVEPKSCDKTHTCPPCPAPELLGGPSVFLFPPKPKDTLMISRTPEVTCVVVDVSHEDPEVKFNWYVDGVEVHNAKTKPREEQYNSTYRVVSVLTVLHQDWLNGKEYKCKVSNKALPAPIEKTISKAKGQPREPQVYTLPPSRDELTGGGGSGGGGSDVVMTQSPLSLPVTLGQPASISCRSSQSLLHSNGNTYLHWYQQRPGQSPNHLIYQVSNRFSGVPDRFSGSGSGTDFTLKISRVEAEDVGVYFCSQTTHVPWTFGCGTKVEIKGGGGSGGGGSGGGGSGGGGSQVQLVQSGAEVKKPGASVKLSCKASGYTFISYYIYWVKQAPGQCLEWIGGINPRNGGTNFNEKFKSRATLTVDTSISTAYMELSRLRSEDTAVYYCTRHGNGVYWGQGTTLTVSSGGGGSGGGGSKNQVSLTCLVKGFYPSDIAVEWESNGQPENNYKTTPPVLDSDGSFFLYSKLTVDKSRWQQGNVFSCSVMHEALHNHYTQKSLSLSPGK
light: QSALTQPASVSGSPGQSITISCTGTSSDVGGYNYVSWYQQHPGKAPKLMIYDVSNRPSGVSNRFSGSKSGNTASLTISGLQAEDEADYYCSSYTSSSTRVFGTGTKVTVLGQPKANPTVTLFPPSSEELQANKATLVCLISDFYPGAVTVAWKADGSPVKAGVETTKPSKQSNNKYAASSYLSLTPEQWKSHRSYSCQVTHEGSTVEKTVAPTECS
notes: IgG1; scFv inserted between EU 359 and 360
B4: PDL1-C40-6A7-FV3C (IgG1) (bispecific antibody)
heavy: EVQLLESGGGLVQPGGSLRLSCAASGFTFSSYIMMWVRQAPGKGLEWVSSIYPSGGITFYADTVKGRFTISRDNSKNTLYLQMNSLRAEDTAVYYCARIKLGTVTTVDYWGQGTLVTVSSASTKGPSVFPLAPSSKSTSGGTAALGCLVKDYFPEPVTVSWNSGALTSGVHTFPAVLQSSGLYSLSSVVTVPSSSLGTQTYICNVNHKPSNTKVDKKVEPKSCDKTHTCPPCPAPELLGGPSVFLFPPKPKDTLMISRTPEVTCVVVDVSHEDPEVKFNWYVDGVEVHNAKTKPREEQYNSTYRVVSVLTVLHQDWLNGKEYKCKVSNKALPAPIEKTISKAKGQPREPQVYTLPPSRDELTKNQVSLTCLVKGFYPSDIAVEWESNGGGGSGGGGSDVVMTQSPLSLPVTLGQPASISCRSSQSLLHSNGNTYLHWYQQRPGQSPNHLIYQVSNRFSGVPDRFSGSGSGTDFTLKISRVEAEDVGVYFCSQTTHVPWTFGCGTKVEIKGGGGSGGGGSGGGGSGGGGSQVQLVQSGAEVKKPGASVKLSCKASGYTFISYYIYWVKQAPGQCLEWIGGINPRNGGTNFNEKFKSRATLTVDTSISTAYMELSRLRSEDTAVYYCTRHGNGVYWGQGTTLTVSSGGGGSGGGGSGQPENNYKTTPPVLDSDGSFFLYSKLTVDKSRWQQGNVFSCSVMHEALHNHYTQKSLSLSPGK
light: QSALTQPASVSGSPGQSITISCTGTSSDVGGYNYVSWYQQHPGKAPKLMIYDVSNRPSGVSNRFSGSKSGNTASLTISGLQAEDEADYYCSSYTSSSTRVFGTGTKVTVLGQPKANPTVTLFPPSSEELQANKATLVCLISDFYPGAVTVAWKADGSPVKAGVETTKPSKQSNNKYAASSYLSLTPEQWKSHRSYSCQVTHEGSTVEKTVAPTECS
notes: IgG1; scFv inserted between EU 384 and 385
B5: PDL1-C40-6A7-FV3A (IgG1) (bispecific antibody)
heavy: EVQLLESGGGLVQPGGSLRLSCAASGFTFSSYIMMWVRQAPGKGLEWVSSIYPSGGITFYADTVKGRFTISRDNSKNTLYLQMNSLRAEDTAVYYCARIKLGTVTTVDYWGQGTLVTVSSASTKGPSVFPLAPSSKSTSGGTAALGCLVKDYFPEPVTVSWNSGALTSGVHTFPAVLQSSGLYSLSSVVTVPSSSLGTQTYICNVNHKPSNTKVDKKVEPKSCDKTHTCPPCPAPELLGGPSVFLFPPKPKDTLMISRTPEVTCVVVDVSHEDPEVKFNWYVDGVEVHNAKTKPREEQYNSTYRVVSVLTVLHQDWLNGKEYKCKVSNKALPAPIEKTISKAKGQPREPQVYTLPPSRDEGGGGSGGGGSDVVMTQSPLSLPVTLGQPASISCRSSQSLLHSNGNTYLHWYQQRPGQSPNHLIYQVSNRFSGVPDRFSGSGSGTDFTLKISRVEAEDVGVYFCSQTTHVPWTFGCGTKVEIKGGGGSGGGGSGGGGSGGGGSQVQLVQSGAEVKKPGASVKLSCKASGYTFISYYIYWVKQAPGQCLEWIGGINPRNGGTNFNEKFKSRATLTVDTSISTAYMELSRLRSEDTAVYYCTRHGNGVYWGQGTTLTVSSGGGGSGGGGSVSLTCLVKGFYPSDIAVEWESNGQPENNYKTTPPVLDSDGSFFLYSKLTVDKSRWQQGNVFSCSVMHEALHNHYTQKSLSLSPGK
light: QSALTQPASVSGSPGQSITISCTGTSSDVGGYNYVSWYQQHPGKAPKLMIYDVSNRPSGVSNRFSGSKSGNTASLTISGLQAEDEADYYCSSYTSSSTRVFGTGTKVTVLGQPKANPTVTLFPPSSEELQANKATLVCLISDFYPGAVTVAWKADGSPVKAGVETTKPSKQSNNKYAASSYLSLTPEQWKSHRSYSCQVTHEGSTVEKTVAPTECS
notes: IgG1; also called G3
B6: C40-6A7 (IgG2) (antibody, V domains shown)
VH: QVQLVQSGAEVKKPGASVKLSCKASGYTFISYYIYWVKQAPGQGLEWIGGINPRNGGTNFNEKFKSRATLTVDTSISTAYMELSRLRSEDTAVYYCTRHGNGVYWGQGTTLTVSS
VL: DVVMTQSPLSLPVTLGQPASISCRSSQSLLHSNGNTYLHWYQQRPGQSPNHLIYQVSNRFSGVPDRFSGSGSGTDFTLKISRVEAEDVGVYFCSQTTHVPWTFGGGTKVEIK
notes: IgG2; also called original anti-CD40 monoclonal antibody

Chain of human CD40 (hCD40-his) (P25942 21-193 limits assumed): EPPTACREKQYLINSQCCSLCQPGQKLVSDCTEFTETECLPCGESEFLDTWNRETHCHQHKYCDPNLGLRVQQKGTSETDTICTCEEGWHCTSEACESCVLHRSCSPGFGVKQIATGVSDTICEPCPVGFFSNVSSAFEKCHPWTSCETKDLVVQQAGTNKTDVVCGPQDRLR

This assay has as its target human CD40 (hCD40-his) (human, UniProt P25942 21-193). Briefly: SPR Biacore T200; binder captured on protein A chip, target as analyte. The procedure:
Binding affinity to human CD40 of the obtained fusion proteins PDL1-C40-6A7-FV3A (IgG1), PDL1-C40-6A7-FV3A-IgG4, PDL1-C40-6A7-FV3C (IgG1), PDL1-C40-6A7-FV3A1 (IgG1), PDL1-C40-6A7-FV3A2 (IgG1), and PDL1-C40-6A7-FV3A3 (IgG1) were determined by surface plasmon resonance (SPR) using Biacore™ T200 biosensor equipped with pre-immobilized protein A sensor chips. The original anti-CD40 monoclonal antibody C40-6A7 IgG2 (6A7, VH SEQ ID NO: 91, VL SEQ ID NO: 92), which the scFV was derived from, was used as a control.
Background: In SPR one partner is held on a chip, and binding of the other changes the refractive index at the surface.
One may read the Kd as the equilibrium constant for the complex coming apart. The koff is the first-order rate constant of dissociation. Read a high koff as fast dissociation. In general, kon refers to the rate constant with which the complex forms. The low end stands for slower complex formation, the high end for faster complex formation. B1 yielded a Kd of 0.63 nM, a koff of 0.000388 s⁻¹ and a kon of 616000 M⁻¹ s⁻¹.
The matching figures for B2: 1.04 nM, 0.000379 s⁻¹ and 364000 M⁻¹ s⁻¹.
The matching figures for B3: 0.847 nM, 0.000375 s⁻¹ and 443000 M⁻¹ s⁻¹.
The matching figures for B4: 0.865 nM, 0.000472 s⁻¹ and 546000 M⁻¹ s⁻¹.
B5 showed a Kd of 1.09 nM, a koff of 0.000427 s⁻¹ and a kon of 391000 M⁻¹ s⁻¹.
In turn, B6 displayed a Kd of 3.09 nM, a koff of 0.00171 s⁻¹ and a kon of 554000 M⁻¹ s⁻¹.
